The source of these data is publication PMC9716232.

In this assay the target is complement component 3b (C3b) (human) (UniProt P01024). Description: SPR; equilibrium: each FH sample injected at 0.0156-2 uM, in duplicate, over 1500 RUs of C3b amine-coupled on a Biacore CM5 sensor chip; fit to a 1:1 equilibrium model (Biacore software). Background: In SPR one partner is held on a chip, and binding of the other changes the refractive index at the surface.
As a reminder, the Kd is the concentration at which binding is half-saturated. A lower Kd goes with a tighter complex. As for “FH variant Arg175Pro (from UniProt P08603 19-1231) (natural protein)”, the Kd is 6.39 µM. This counts as single-digit micromolar. Next, “FH variant Arg53His (from UniProt P08603 19-1231) (natural protein)”: 3.16 µM. Next, “FH variant Arg1210Cys (from UniProt P08603 19-1231) (natural protein)”: 1.95 µM. Under “FH variant Arg567Gly (from UniProt P08603 19-1231) (natural protein)” stands 4.21 µM; under “control factor H (FH) (from UniProt P08603 19-1231) (natural protein)”, 1.7 µM.
